Measured values published in paper PMC9505826, “A Peptide Inhibitor of the Human Cytomegalovirus Core Nuclear Egress Complex” (Pharmaceuticals, 2022).

Biological target: recombinant HCMV pUL50 (His-tagged) (human cytomegalovirus (HCMV)) (UniProt P16791)
Assay: ELISA; competition: pUL53 (1 µg/mL) coated on Immulon plates; peptide in serial dilutions from 10 µM together with His-tagged pUL50 (0.78 µg/mL) for 2.5 h; detection with anti-His-HRP; 0.1 M phosphate buffer pH 7.2, 0.1% BSA, 0.01% Tween 20

NLS-CPP (acetylated; pUL53 NLS 18-27 joined to HIV-1 Tat 47-59) (peptide)
IC50: > 10 µM
